Reference: patent publication US20240010749A1 (Merck KGaA, published 2024)

B1: hmn-14 (antibody, human IgG1, kappa, V domains shown)
VH: EVQLVESGGGVVQPGRSLRLSCSASGFDFTTYWMSWVRQAPGKGLEWIGEIHPDSSTINYAPSLKDRFTISRDNAKNTLFLQMDSLRPEDTGVYFCASLYFGFPWFAYWGQGTPVTVSS
VL: DIQLTQSPSSLSASVGDRVTITCKASQDVGTSVAWYQQKPGKAPKLLIYWTSTRHTGVPSRFSGSGSGTDFTFTISSLQPEDIATYYCQQYSLYRSFGQGTKVEIKR
notes: Known comparator antibody, human IgG; also called labetuzumab
B2: ADC1 (mAb1-glucuronid-exatecan) (other)
heavy: EVQLQESGPGLVKPSQTLSLTCTVSDGSVSRGGYYLTWIRQHPGKGLEWIGYIYYSGSTYFNPSLRSRVTMSVDTSKNQFSLKLSSVTAADTAVYYCARGIAVAPFDYWGQGTLVTVSSASTKGPSVFPLAPSSKSTSGGTAALGCLVKDYFPEPVTVSWNSGALTSGVHTFPAVLQSSGLYSLSSVVTVPSSSLGTQTYICNVNHKPSNTKVDKRVEPKSCDKTHTCPPCPAPPVAGPSVFLFPPKPKDTLMISRTPEVTCVVVDVSHEDPEVKFNWYVDGVEVHNAKTKPREEQYNSTYRVVSVLTVLHQDWLNGKEYKCKVSNKALPSSIEKTISKAKGQPREPQVYTLPPSREEMTKNQVSLTCLVKGFYPSDIAVEWESNGQPENNYKTTPPVLDSDGSFFLYSKLTVDKSRWQQGNVFSCSVMHEALHNHYTQKSLSLSPG
light: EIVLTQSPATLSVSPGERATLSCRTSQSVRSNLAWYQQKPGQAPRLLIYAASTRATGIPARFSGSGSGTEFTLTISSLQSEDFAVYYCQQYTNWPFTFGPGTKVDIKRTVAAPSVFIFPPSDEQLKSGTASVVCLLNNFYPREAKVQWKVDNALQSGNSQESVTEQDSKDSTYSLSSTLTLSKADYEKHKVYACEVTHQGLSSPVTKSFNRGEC
modifications: exatecan attached through the glucuronide linker of DL1 (maleimide) to cysteines of reduced interchain disulfides; DAR 7.9
B3: mAb1 (antibody, human IgG1, kappa)
heavy: EVQLQESGPGLVKPSQTLSLTCTVSDGSVSRGGYYLTWIRQHPGKGLEWIGYIYYSGSTYFNPSLRSRVTMSVDTSKNQFSLKLSSVTAADTAVYYCARGIAVAPFDYWGQGTLVTVSSASTKGPSVFPLAPSSKSTSGGTAALGCLVKDYFPEPVTVSWNSGALTSGVHTFPAVLQSSGLYSLSSVVTVPSSSLGTQTYICNVNHKPSNTKVDKRVEPKSCDKTHTCPPCPAPPVAGPSVFLFPPKPKDTLMISRTPEVTCVVVDVSHEDPEVKFNWYVDGVEVHNAKTKPREEQYNSTYRVVSVLTVLHQDWLNGKEYKCKVSNKALPSSIEKTISKAKGQPREPQVYTLPPSREEMTKNQVSLTCLVKGFYPSDIAVEWESNGQPENNYKTTPPVLDSDGSFFLYSKLTVDKSRWQQGNVFSCSVMHEALHNHYTQKSLSLSPG
light: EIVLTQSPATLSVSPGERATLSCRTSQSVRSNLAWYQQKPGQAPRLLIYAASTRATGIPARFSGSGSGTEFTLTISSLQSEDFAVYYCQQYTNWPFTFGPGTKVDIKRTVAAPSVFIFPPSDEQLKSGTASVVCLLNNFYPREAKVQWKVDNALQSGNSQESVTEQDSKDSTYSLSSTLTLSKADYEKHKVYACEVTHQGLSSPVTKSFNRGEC
notes: Labelled with pHrodo in the internalization assay; also called so8G4
B4: ADC2 (mAb1-AAN-exatecan) (other)
heavy: EVQLQESGPGLVKPSQTLSLTCTVSDGSVSRGGYYLTWIRQHPGKGLEWIGYIYYSGSTYFNPSLRSRVTMSVDTSKNQFSLKLSSVTAADTAVYYCARGIAVAPFDYWGQGTLVTVSSASTKGPSVFPLAPSSKSTSGGTAALGCLVKDYFPEPVTVSWNSGALTSGVHTFPAVLQSSGLYSLSSVVTVPSSSLGTQTYICNVNHKPSNTKVDKRVEPKSCDKTHTCPPCPAPPVAGPSVFLFPPKPKDTLMISRTPEVTCVVVDVSHEDPEVKFNWYVDGVEVHNAKTKPREEQYNSTYRVVSVLTVLHQDWLNGKEYKCKVSNKALPSSIEKTISKAKGQPREPQVYTLPPSREEMTKNQVSLTCLVKGFYPSDIAVEWESNGQPENNYKTTPPVLDSDGSFFLYSKLTVDKSRWQQGNVFSCSVMHEALHNHYTQKSLSLSPG
light: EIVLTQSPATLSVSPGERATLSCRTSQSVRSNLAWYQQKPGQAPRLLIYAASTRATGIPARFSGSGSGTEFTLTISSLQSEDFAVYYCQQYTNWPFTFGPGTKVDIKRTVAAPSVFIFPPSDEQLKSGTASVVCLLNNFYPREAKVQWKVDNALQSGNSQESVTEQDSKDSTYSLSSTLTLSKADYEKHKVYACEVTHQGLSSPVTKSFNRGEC
modifications: exatecan attached through the legumain-cleavable Ala-Ala-Asn linker of DL2 (maleimide) to cysteines of reduced interchain disulfides; DAR 7.6

Columns and labels:
[1] = target: T1, human CEACAM5 expressed on cancer cell lines (MKN-45, NCI-H441, SNU-16, SK-CO-1, LS174T) (human, UniProt P06731 35-685); assay: cell binding on MKN45 cells, average of several experiments
T1 construct: Endogenous CEACAM5 of human cancer cell lines; the cell line is named under assay or readout; also called CEACAM5-positive cell lines; MKN45 cell line expressing human CEACAM5
T1 sequence: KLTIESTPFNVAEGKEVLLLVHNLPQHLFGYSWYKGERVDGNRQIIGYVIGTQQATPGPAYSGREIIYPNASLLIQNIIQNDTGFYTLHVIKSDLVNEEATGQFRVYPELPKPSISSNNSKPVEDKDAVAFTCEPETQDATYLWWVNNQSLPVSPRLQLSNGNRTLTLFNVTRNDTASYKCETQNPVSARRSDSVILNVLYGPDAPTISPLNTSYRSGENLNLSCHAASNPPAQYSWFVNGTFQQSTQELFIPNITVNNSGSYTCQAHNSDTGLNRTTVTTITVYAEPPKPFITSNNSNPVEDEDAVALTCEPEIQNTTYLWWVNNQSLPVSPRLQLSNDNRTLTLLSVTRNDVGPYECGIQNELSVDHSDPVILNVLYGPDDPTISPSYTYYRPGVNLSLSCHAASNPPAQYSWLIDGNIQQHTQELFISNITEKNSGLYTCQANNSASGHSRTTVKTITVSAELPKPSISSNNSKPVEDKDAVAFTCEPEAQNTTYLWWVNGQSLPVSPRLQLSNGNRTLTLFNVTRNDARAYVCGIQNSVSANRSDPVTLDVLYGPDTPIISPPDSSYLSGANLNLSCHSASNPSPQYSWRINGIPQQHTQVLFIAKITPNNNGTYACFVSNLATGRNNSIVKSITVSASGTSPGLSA

[2] = target: T1, human CEACAM5 expressed on cancer cell …; assay: cell-based or functional assay
[3] = target: T1, human CEACAM5 expressed on cancer cell …; assay: cell-based or functional assay; remark: listed apart in the source

Row | Binder | EC50 [1] [nM] | fold higher potency than ADC SAR DM4 against SK-CO-1 cancer cells (cell viability) [2] [fold] | IC50 [M], cell viability (CellTiter-Glo, 6 days), LS174T [3] [M] | IC50 [M], cell viability (CellTiter-Glo, 6 days), MKN-45 [3] [M] | IC50 [M], cell viability (CellTiter-Glo, 6 days), SK-CO-1 [3] [M] | IC50 [M], cell viability (CellTiter-Glo, 6 days), SNU-16 [3] [M]
1 | B1 | 16 |  |  |  |  | 
2 | B2 |  | 2.9 | 3.8e-10 | 6.2e-10 | 8.5e-11 | 3.2e-10
3 | B3 | 10.4 |  |  |  |  | 
4 | B4 |  | 2.7 | 2.8e-10 | 4.7e-10 | 6.9e-11 | 2.8e-10
